Changes are numbered by the printed parent chain.
T1: human TREM2 Fc fusion (entire TREM2 ECD; only one Fc arm fused to TREM2) (human, UniProt Q9NZC2 19-174)
T1 construct: also called huTREM2-Fc; recombinant hTREM2
T1 sequence: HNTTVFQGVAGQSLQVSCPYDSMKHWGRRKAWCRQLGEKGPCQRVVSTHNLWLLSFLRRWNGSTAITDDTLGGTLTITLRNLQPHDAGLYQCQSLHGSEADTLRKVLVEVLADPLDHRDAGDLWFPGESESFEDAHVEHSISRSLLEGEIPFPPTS

T2: cynomolgus monkey TREM2 Fc fusion (entire TREM2 ECD; only one Fc arm fused to TREM2) (cynomolgus monkey, UniProt Q9NZC2 19-174 (human entry))
T2 construct: also called cyno TREM2-Fc
T2 chain: T1 sequence with A10E, W60R, L89F, F125V

T3: human TREM2 expressed on cells (human, UniProt Q9NZC2 19-230)
T3 construct: BW5147.G.1.4 cells stably expressing human TREM2 together with Dap12, or endogenous TREM2 of primary human myeloid cells; also called huT2 BW; hTREM2 expressing cell line
T3 sequence: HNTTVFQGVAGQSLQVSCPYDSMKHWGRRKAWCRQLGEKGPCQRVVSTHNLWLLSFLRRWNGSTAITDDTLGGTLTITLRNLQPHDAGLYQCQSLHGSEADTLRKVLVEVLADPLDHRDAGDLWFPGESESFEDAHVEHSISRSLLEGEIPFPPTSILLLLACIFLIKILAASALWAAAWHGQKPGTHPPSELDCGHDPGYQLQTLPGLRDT

B1: AL2p-23 (antibody, V domains shown)
VH: QVQLVQSGAEVKKPGSSVKVSCKASGYAFSSHWMNWVRQAPGQGLEWMGRIYPGDGQTNYAQKRQGRVTITADESTSTAYMELSSLRSEDTAVYYCARLLRNQPGESYAMDYWGQGTLVTVSS
VL: GVVMTQTPLSLSVTPGQPASISCRTSQSLVHSNGYTYLHWYLQKPGQSPQLLIYKVSNRVSGVPDRFSGSGSGTDFTLKISRVEAEDVGVYYCSQSTRVPYTFGQGTKLEIK
notes: Fab and IgG formats under one id
B2: AL2p-29 (antibody, V domains shown)
VH: B1 VH with H32Q, Q57D, R64F
VL: B1 VL with T25S, Q27R, V60F
notes: as for B1
B3: AL2p-h35 (antibody, human IgG1, V domains shown)
VH: B1 VH with H32S, Q57D, R64F, V68A, E74T
VL: B1 VL with G1D, T25S, V60F, V88L, Y92F
notes: humanized, human IgG1; Fab and IgG formats under one id
B4: AL2p-h42 (antibody, human IgG1, V domains shown)
VH: B1 VH with S16A, H32S, G44R, Q57D, R64F, A72R, E74T, T76A
VL: B1 VL with G1D, T25S, V60F
notes: as for B3
B5: AL2p-h44 (antibody, human IgG1, V domains shown)
VH: QVQLVQSGAEVKKPGASLKVSCKASGYAFSSSWMNWVRQAPGQRLEWIGRIYPGDGDTNYAQKFQGRATLTADTSASTAYMELSSLRSEDTAVYFCARLLRNQPGESYAMDYWGQGTLVTVSS
VL: B1 VL with G1D, T25S, V60F
notes: as for B3
B6: AL2p-h47 (antibody, human IgG1, V domains shown)
VH: QVQLVQSGAEVKKPGASVKVSCKASGYAFSSSWMNWVRQAPGQGLEWMGRIYPGDGDTNYNGEFRVRVTMTRDTSTSTVYMELSSLRSEDTAVYYCARLLRNQPGESYAMDYWGQGTLVTVSS
VL: B1 VL with G1D, T25S, V60F
notes: as for B3
B7: AL2p-h59 (antibody, human IgG1, V domains shown)
VH: B5 VH with L18V, I48M, A68V, L70I, A72R, F95Y
VL: B1 VL with G1D, V2I, T7S, S12P, Q17E, T25S, V60F, Q105G, L109V
notes: as for B3
B8: AL2p-h76 (antibody, human IgG1, V domains shown)
VH: B5 VH with L18V, L70I
VL: DVVMTQSPDSLAVSLGERATINCRSSQSLVHSNGYTYLHWYQQKPGQSPKLLIYKVSNRFSGVPDRFSGSGSGTDFTLTISSLQAEDVAVYYCSQSTRVPYTFGGGTKVEIK
notes: as for B3
B9: AL2p-h32 (antibody, human IgG1, V domains shown)
VH: B6 VH with A16S, M48I, V68A, M70L, R72A, S77T, V79A, Y95F
VL: B1 VL with G1D, T25S, V60F, V88L, Y92F
notes: as for B3
B10: AL2p-h43 (antibody, human IgG1, V domains shown)
VH: B5 VH with A61N, Q62G, K63E, Q65R, G66V
VL: B1 VL with G1D, T25S, V60F
notes: as for B3
B11: AL2p-h90 (antibody, human IgG1, V domains shown)
VH: B5 VH with L18V, A68V, L70I, F95Y
VL: DVQMTQSPSSLSASVGDRVTITCRSSQSLVHSNGYTYLHWYQQKPGKSPKLLIYKVSNRFSGVPSRFSGSGSGTDFTLTISSLQPEDFATYYCSQSTRVPYTFGGGTKVEIK
notes: as for B3
B12: AL2p-h24 (antibody, human IgG1, V domains shown)
VH: B5 VH with K12V, V20I, R44G, A61N, A76T, T117A
VL: B1 VL with G1D, T25S, V60F, V88L, Y92F
notes: as for B3
B13: AL2p-h25 (antibody, human IgG1, V domains shown)
VH: B6 VH with V18L, V20I, M48I, V68A, M70L, R72A, V79A, T117A
VL: B1 VL with G1D, T25S, V60F, V88L, Y92F
notes: as for B3
B14: AL2p-h27 (antibody, human IgG1, V domains shown)
VH: B6 VH with M48I, V68A, M70L, R72A, V79A, Y95F
VL: B1 VL with G1D, T25S, V60F, V88L, Y92F
notes: as for B3

Assays:
[1] = biological target: T1, human TREM2 Fc fusion (entire TREM2 …); experiment: BLI, IgG, avid
Description: (§1) Briefly, IgGs were loaded on-line onto AHQ sensors, Sensors were equilibrated off-line in assay buffer for 30 minutes and then monitored on-line for 60 seconds for baseline establishment. For avid binding measurement, sensors with loaded IgGs were exposed to 100 nM antigen (human or cynomolgus monkey TREM2 Fe fusion using the entire TREM2 ECD; only one Fc arm was fused to TREM2) for 3 minutes, afterwards they were transferred to assay buffer for 3 minutes for off-rate measurement. Monovalent binding measurements were obtained by loading human TREM2 Fc fusion antigens to AHQ sensor and followed by exposure to 100 nM TREM2 antibody Fab. Kinetics data were fit using a 1:1 binding model in the data analysis software provided by ForteBio. Assay was run at room temperature (25° C.).

[2] = biological target: T1, human TREM2 Fc fusion (entire TREM2 …); experiment: BLI, Fab, monovalent
[3] = biological target: T2, cynomolgus monkey TREM2 Fc fusion …; experiment: BLI, Fab, monovalent
[4] = biological target: T3, human TREM2 expressed on cells; experiment: FACS, hTREM2 BW cells
Method in brief: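 Cells were BW5147.G.1.4 stably expressing human TREM2 with Dap12, or human monocyte-derived dendritic cells differentiated 6 days with GM-CSF and IL-4. Antibodies bound 1 h on ice in PBS+2% FBS, then PE anti-human secondary 30 min on ice; flow cytometry read-out as mean fluorescence intensity.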

[5] = biological target: T3, human TREM2 expressed on cells; experiment: cell-based or functional assay
[6] = biological target: T4, human TREM2/DAP12 fusion protein (human, UniProt O43914 41-113, limits assumed); experiment: cell-based or functional assay
[7] = biological target: T1, human TREM2 Fc fusion (entire TREM2 …); experiment: BLI, Fab, monovalent; remark: listed apart in the source
Description: as §1, with “Briefly, IgG's” for “Briefly, IgGs”, “AHQ sensors.” for “AHQ sensors,”, “(human” for “(human or cynomolgus monkey”, “TREM2 Fc” for “TREM2 Fe”, “TREM2 Fe” for “TREM2 Fc”

[8] = biological target: T3, human TREM2 expressed on cells; experiment: FACS, hTREM2 BW cells; remark: listed apart in the source
Description: To examine cell binding of anti-TREM2 antibodies, recombinant, human TREM2-expressing BW5147.G.1.4 cells (ATCC® TIB48™) were established by stably expressing either mouse TREM2 or human TREM2 together with Dap12 using viral infection. Cells were harvested by scraping, washed in PBS, counted and plated on 96-well U bottom plates at 1)(10⁵ cells/well. The plates were spun at 1,400 rpm for 3 minutes and primary anti-TREM2 or control antibodies were added in FACS buffer (PBS H2% FBS) and incubated on ice for one hour. Cells were subsequently centrifuged as before and washed thrice with FACS buffer. Cells were then incubated with anti-human PE conjugated secondary antibody (BD Biosciences) in FACS buffer for 30 minutes on ice. Cells were again washed thrice with FACS buffer and analyzed on a BD FACS Canto. Binding was measured as mean fluorescence intensity in the APC channel.

[9] = biological target: T4, human TREM2/DAP12 fusion protein; experiment: cell-based or functional assay; remark: listed apart in the source

T4 sequence (O43914 other isoform, or with tags, fused parts or gaps limits assumed): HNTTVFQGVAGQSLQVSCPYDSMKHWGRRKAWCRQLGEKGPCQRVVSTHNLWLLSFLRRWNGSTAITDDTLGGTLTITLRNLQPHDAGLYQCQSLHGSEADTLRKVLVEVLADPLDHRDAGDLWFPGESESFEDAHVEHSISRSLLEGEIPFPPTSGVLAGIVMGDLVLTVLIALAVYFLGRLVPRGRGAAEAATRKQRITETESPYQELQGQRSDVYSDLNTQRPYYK

| Binder | Kd [1] | Kd [2] | Kd [3] | Kd [4] | Survival huDCs plate bound IgG, AUC [5] | Luciferase activation plate bound 33 nM IgG, FOC [6] | Luciferase activation soluble 10 nM IgG, FOC [6] | Kd [7] | cell binding (FOB) [8] | Soluble luciferase activation at 10 µg/ml Fold over control [9] |
| --- | --- | --- | --- | --- | --- | --- | --- | --- | --- | --- |
| B1 | 0.334 nM | 4.35 nM | 4.16 nM | 1.2 nM | 1.11e+06 AUC | 29.8 FOC | 2.53 FOC | – | – | – |
| B2 | 0.403 nM | 6.38 nM | 6.47 nM | 1.3 nM | 1.11e+06 AUC | 26.6 FOC | 2.17 FOC | – | – | – |
| B3 | – | – | – | – | – | – | – | 127 nM | 69 FOB | 6.81 fold over control |
| B4 | – | – | – | – | – | – | – | 141 nM | 79 FOB | 9.29 fold over control |
| B5 | – | – | – | – | – | – | – | 180 nM | 80 FOB | 7.29 fold over control |
| B6 | – | – | – | – | – | – | – | 161 nM | 93 FOB | 9.28 fold over control |
| B7 | – | – | – | – | – | – | – | 130 nM | 69 FOB | 7.06 fold over control |
| B8 | – | – | – | – | – | – | – | 83 nM | 86 FOB | 6.57 fold over control |
| B9 | – | – | – | – | – | – | – | 144 nM | 81 FOB | 5.6 fold over control |
| B10 | – | – | – | – | – | – | – | 134 nM | 91 FOB | 8.65 fold over control |
| B11 | – | – | – | – | – | – | – | 61.2 nM | 126 FOB | 4.35 fold over control |
| B12 | – | – | – | – | – | – | – | 1150 nM | 69 FOB | 4.36 fold over control |
| B13 | – | – | – | – | – | – | – | 153 nM | 90 FOB | 7.45 fold over control |
| B14 | – | – | – | – | – | – | – | 120 nM | 78 FOB | 7.23 fold over control |

— patent US20200317776A1 (published 2020)
